{"source": "paper doi:10.1101/2023.12.03.569830", "about": "(bioRxiv, 2023)", "binders": {"B1": {"name": "Nb^traN (TraN-specific nanobody), C-terminal hexa-histidine tag (VHH)", "VHH": "QVQLQESGGGLVQAGGSLRLSCAASGTIFDGVDMGWYRQAPGKEREFVAGITAGSSTYYADSVKGRFTISRDNAKNTVYLQMNSLKPEDTAVYYCAAYPLDEIGSHDPHSYWGQGTQVTVSS"}}, "target": "T1, surface-exposed domain of TraN (TraN^surf), N-terminal hexa-histidine tag (Salmonella enterica serovar Typhimurium …)", "T1 chain": "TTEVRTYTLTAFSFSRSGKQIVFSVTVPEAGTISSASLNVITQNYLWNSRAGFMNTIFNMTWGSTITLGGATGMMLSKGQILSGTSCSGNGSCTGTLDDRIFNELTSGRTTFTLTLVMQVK", "test": "ITC"}
{"binder": "B1", "values": [{"measurement": "Kd", "result": 4.45, "unit": "µM"}]}
